Columns and labels:
Assay in all cases: cell-based or functional assay
[1] = target: T1, Human EpCAM expressed on cells (CHO-hEpCAM, HCT116) (human, UniProt P16422 24-314)
T1 sequence (looked up): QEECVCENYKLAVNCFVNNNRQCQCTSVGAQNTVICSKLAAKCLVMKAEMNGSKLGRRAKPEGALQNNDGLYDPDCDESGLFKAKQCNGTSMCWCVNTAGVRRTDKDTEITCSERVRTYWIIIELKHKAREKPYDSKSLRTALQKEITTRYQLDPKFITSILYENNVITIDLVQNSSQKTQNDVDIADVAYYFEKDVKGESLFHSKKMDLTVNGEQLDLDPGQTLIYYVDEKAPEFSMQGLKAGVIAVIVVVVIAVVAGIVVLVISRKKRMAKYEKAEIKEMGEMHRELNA

[2] = target: T1, Human EpCAM expressed on cells …; remark: listed apart in the source
[3] = target: Cynomolgus EpCAM expressed on CHO cells (cynomolgus monkey)
Chain of Cynomolgus EpCAM expressed on CHO cells (cynomolgus monkey) (Q1WER1 24-314): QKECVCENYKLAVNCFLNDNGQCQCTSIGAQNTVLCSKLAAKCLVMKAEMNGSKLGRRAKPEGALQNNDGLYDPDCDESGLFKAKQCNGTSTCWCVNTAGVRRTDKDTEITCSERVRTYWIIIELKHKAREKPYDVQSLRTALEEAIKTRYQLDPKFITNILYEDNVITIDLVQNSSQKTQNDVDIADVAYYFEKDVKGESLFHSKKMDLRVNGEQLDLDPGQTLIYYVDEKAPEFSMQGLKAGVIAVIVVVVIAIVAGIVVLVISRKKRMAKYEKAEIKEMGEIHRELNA

[4] = target: T1, Human EpCAM expressed on cells …; remark: listed apart in the source
[5] = target: T1, Human EpCAM expressed on cells …; remark: listed apart in the source
[6] = target: Cynomolgus EpCAM expressed on CHO cells (cynomolgus monkey); remark: listed apart in the source

B1: BA3182 (bispecific antibody, human IgG1, kappa, N297Q)
light: DIQMTQSPSSLSASVGDRVTITCSASSSISYMHWYQQKPGQAPRLLIYSTSNLASGVPSRFSGSGSGTDFTFTISSLEAEDAATYYCHQWSTYHTFGQGTKVEIKRTVAAPSVFIFPPSDEQLKSGTASVVCLLNNFYPREAKVQWKVDNALQSGNSQESVTEQDSKDSTYSLSSTLTLSKADYEKHKVYACEVTHQGLSSPVTKSFNRGECSRSGGGGEVQLVESGGGLVQPGGSLRLSCAASGFTFNTYAMNWVRQAPGKGLEWVARIRSKYNNYATYYADSVKDRFTISRDDSKNSLYLQMNSLKTEDTAVYYCVRHSNFGNSKVSWFAYWGQGTLVTVSSGGSGGSGGSGGSGGQAVVTQEPSLTVSPGGTVTLTCRSSAGAVTTSNYDNWVQQKPGQAPRGLIGGTNKRAPWTPARFSGSLLGGKAALTITGAQAEDEADYYCALWYSNLWVFGGGTKLTVLSR
heavy: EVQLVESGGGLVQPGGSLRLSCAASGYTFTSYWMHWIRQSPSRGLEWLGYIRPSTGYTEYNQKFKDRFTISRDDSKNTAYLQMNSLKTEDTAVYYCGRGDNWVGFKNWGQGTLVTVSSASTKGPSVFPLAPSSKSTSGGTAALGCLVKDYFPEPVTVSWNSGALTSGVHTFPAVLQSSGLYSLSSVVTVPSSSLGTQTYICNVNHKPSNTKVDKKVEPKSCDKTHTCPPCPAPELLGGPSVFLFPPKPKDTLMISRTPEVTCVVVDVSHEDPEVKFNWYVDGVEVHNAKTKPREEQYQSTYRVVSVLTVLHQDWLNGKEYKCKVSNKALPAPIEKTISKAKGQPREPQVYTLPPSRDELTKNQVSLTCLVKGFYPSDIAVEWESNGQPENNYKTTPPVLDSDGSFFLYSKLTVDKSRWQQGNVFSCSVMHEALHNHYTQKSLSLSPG
notes: Human IgG1,k aglycosylated mutant (N297Q) with an anti-CD3 scFv on the C-terminus of each light chain; 200 kDa used for molar concentrations; also called BAP150.31-BF45; BA150.31-BF45
EC50, T cell activation bioassay (NFAT luminescence), HCT116 cells, pH 6.0, Experiment-1 [1]: 0.292 nM
EC50, T cell activation bioassay (NFAT luminescence), HCT116 cells, pH 6.0, Experiment-2 [1]: 0.288 nM
EC50, T cell activation bioassay (NFAT luminescence), HCT116 cells, pH 6.0, Experiment-3 [1]: 0.238 nM
EC50, T cell activation bioassay (NFAT luminescence), HCT116 cells, pH 7.4, Experiment-1 [1]: 1.86 nM
EC50, T cell activation bioassay (NFAT luminescence), HCT116 cells, pH 7.4, Experiment-2 [1]: 2.15 nM
EC50, T cell activation bioassay (NFAT luminescence), HCT116 cells, pH 7.4, Experiment-3 [1]: 1.96 nM
EC50, cytolysis of HCT116 cells by human PBMC, pH 6.5, donor 13143 [2]: 1.66 pM
EC50, cytolysis of HCT116 cells by human PBMC, pH 6.5, donor 13290 [2]: 1.03 pM
EC50, cytolysis of HCT116 cells by human PBMC, pH 6.5, donor 13292 [2]: 2.05 pM
EC50, cytolysis of HCT116 cells by human PBMC, pH 6.5, donor 13371 [2]: 0.79 pM
EC50, cytolysis of HCT116 cells by human PBMC, pH 6.5, donor 13397 [2]: 1.19 pM
EC50, cytolysis of HCT116 cells by human PBMC, pH 6.5, donor 13411 [2]: 1.39 pM
EC50, cytolysis of HCT116 cells by human PBMC, pH 6.5, donor 75377 [2]: 0.6 pM
EC50, cytolysis of HCT116 cells by human PBMC, pH 6.5, donor 77535 [2]: 1.52 pM
EC50, cytolysis of HCT116 cells by human PBMC, pH 6.5, donor 85639 [2]: 0.88 pM
EC50, cytolysis of HCT116 cells by human PBMC, pH 6.5, donor 97529 [2]: 2.95 pM
EC50, cytolysis of HCT116 cells by human PBMC, pH 7.4, donor 13143 [2]: 8.73 pM
EC50, cytolysis of HCT116 cells by human PBMC, pH 7.4, donor 13290 [2]: 4.37 pM
EC50, cytolysis of HCT116 cells by human PBMC, pH 7.4, donor 13292 [2]: 6.35 pM
EC50, cytolysis of HCT116 cells by human PBMC, pH 7.4, donor 13371 [2]: 6.96 pM
EC50, cytolysis of HCT116 cells by human PBMC, pH 7.4, donor 13397 [2]: 5.9 pM
EC50, cytolysis of HCT116 cells by human PBMC, pH 7.4, donor 13411 [2]: 1.36 pM
EC50, cytolysis of CHO cynoEpCAM cells by cyno PBMC, pH 6.5, Experiment-1 [3]: 18.9 pM
EC50, cytolysis of CHO cynoEpCAM cells by cyno PBMC, pH 6.5, Experiment-2 [3]: 15.9 pM
EC50, cytolysis of CHO cynoEpCAM cells by cyno PBMC, pH 6.5, Experiment-3 [3]: 17.4 pM
EC50, cytolysis of CHO cynoEpCAM cells by cyno PBMC, pH 7.4, Experiment-1 [3]: 172 pM
EC50, cytolysis of CHO cynoEpCAM cells by cyno PBMC, pH 7.4, Experiment-2 [3]: 215 pM
EC50, cytolysis of CHO cynoEpCAM cells by cyno PBMC, pH 7.4, Experiment-3 [3]: 167 pM
EC50 IL-2 release, human PBMC co-cultured with HCT116, pH 6.5, donor 3371 [4]: 4.56 nM
EC50 IL-2 release, human PBMC co-cultured with HCT116, pH 6.5, donor 3378 [4]: 7.85 nM
EC50 IL-2 release, human PBMC co-cultured with HCT116, pH 6.5, donor 3397 [4]: 9.82 nM
EC50 IL-2 release, human PBMC co-cultured with HCT116, pH 6.5, donor 3411 [4]: 4.92 nM
EC50 IL-2 release, human PBMC co-cultured with HCT116, pH 6.5, donor 75377 [4]: 23.2 nM
EC50 IL-2 release, human PBMC co-cultured with HCT116, pH 6.5, donor 77535 [4]: 19.7 nM
EC50 IL-2 release, human PBMC co-cultured with HCT116, pH 6.5, donor 85639 [4]: 25.6 nM
EC50 IL-2 release, human PBMC co-cultured with HCT116, pH 6.5, donor 97529 [4]: 15 nM
EC50 INFγ release, human PBMC co-cultured with HCT116, pH 6.5, donor 3371 [4]: 5.28 nM
EC50 INFγ release, human PBMC co-cultured with HCT116, pH 6.5, donor 3378 [4]: 6.45 nM
EC50 INFγ release, human PBMC co-cultured with HCT116, pH 6.5, donor 3397 [4]: 10.1 nM
EC50 INFγ release, human PBMC co-cultured with HCT116, pH 6.5, donor 3411 [4]: 2.54 nM
EC50 INFγ release, human PBMC co-cultured with HCT116, pH 6.5, donor 75377 [4]: 2.53 nM
EC50 INFγ release, human PBMC co-cultured with HCT116, pH 6.5, donor 77535 [4]: 24 nM
EC50 INFγ release, human PBMC co-cultured with HCT116, pH 6.5, donor 97529 [4]: 2.52 nM
EC50, T cell activation bioassay (NFAT luminescence), CHO hEpCAM cells, pH 6.0, Experiment-1 [5]: 51 pM
EC50, T cell activation bioassay (NFAT luminescence), CHO hEpCAM cells, pH 6.0, Experiment-2 [5]: 49 pM
EC50, T cell activation bioassay (NFAT luminescence), CHO hEpCAM cells, pH 6.0, Experiment-3 [5]: 48 pM
EC50, T cell activation bioassay (NFAT luminescence), CHO hEpCAM cells, pH 7.4, Experiment-1 [5]: 0.358 nM
EC50, T cell activation bioassay (NFAT luminescence), CHO hEpCAM cells, pH 7.4, Experiment-2 [5]: 0.387 nM
EC50, T cell activation bioassay (NFAT luminescence), CHO hEpCAM cells, pH 7.4, Experiment-3 [5]: 0.403 nM
EC50, T cell activation bioassay (NFAT luminescence), CHO cynoEpCAM cells, pH 6.0, Experiment-1 [6]: 0.545 nM
EC50, T cell activation bioassay (NFAT luminescence), CHO cynoEpCAM cells, pH 6.0, Experiment-2 [6]: 0.597 nM
EC50, T cell activation bioassay (NFAT luminescence), CHO cynoEpCAM cells, pH 6.0, Experiment-3 [6]: 0.586 nM
EC50, T cell activation bioassay (NFAT luminescence), CHO cynoEpCAM cells, pH 7.4, Experiment-1 [6]: 9.46 nM
EC50, T cell activation bioassay (NFAT luminescence), CHO cynoEpCAM cells, pH 7.4, Experiment-2 [6]: 8.82 nM
EC50, T cell activation bioassay (NFAT luminescence), CHO cynoEpCAM cells, pH 7.4, Experiment-3 [6]: 10.7 nM
